Source: publication doi:10.1101/586461 (bioRxiv, 2019)

Key:
[1] = target: the molecule itself; test: negative stain EM
[2] = target: the molecule itself; test: cryo-electron tomography

B1: non-tagged human dynamin 1 (hDyn1) (natural protein)
chain: MGNRGMEDLIPLVNRLQDAFSAIGQNADLDLPQIAVVGGQSAGKSSVLENFVGRDFLPRGSGIVTRRPLVLQLVNATTEYAEFLHCKGKKFTDFEEVRLEIEAETDRVTGTNKGISPVPINLRVYSPHVLNLTLVDLPGMTKVPVGDQPPDIEFQIRDMLMQFVTKENCLILAVSPANSDLANSDALKVAKEVDPQGQRTIGVITKLDLMDEGTDARDVLENKLLPLRRGYIGVVNRSQKDIDGKKDITAALAAERKFFLSHPSYRHLADRMGTPYLQKVLNQQLTNHIRDTLPGLRNKLQSQLLSIEKEVEEYKNFRPDDPARKTKALLQMVQQFAVDFEKRIEGSGDQIDTYELSGGARINRIFHERFPFELVKMEFDEKELRREISYAIKNIHGIRTGLFTPDMAFETIVKKQVKKIREPCLKCVDMVISELISTVRQCTKKLQQYPRLREEMERIVTTHIREREGRTKEQVMLLIDIELAYMNTNHEDFIGFANAQQRSNQMNKKKTSGNQDEILVIRKGWLTINNIGIMKGGSKEYWFVLTAENLSWYKDDEEKEKKYMLSVDNLKLRDVEKGFMSSKHIFALFNTEQRNVYKDYRQLELACETQEEVDSWKASFLRAGVYPERVGDKEKASETEENGSDSFMHSMDPQLERQVETIRNLVDSYMAIVNKTVRDLMPKTIMHLMINNTKEFIFSELLANLYSCGDQNTLMEESAEQAQRRDEMLRMYHALKEALSIIGDINTTTVSTPMPPPVDDSWLQVQSVPAGRRSPTSSPTPQRRAPAVPPARPGSRGPAPGPPPAGSALGGAPPVPSRPGASPDPFGPPPQVPSRPNRAPPGVPSRSGQASPSRPESPRPPFDL
Question: Does B1 bind [1]?
Answer: Result: binds

B2: N-terminal His-tagged human dynamin 1 (hDyn1) (natural protein)
chain: B1 chain
Question: Does B2 bind [2]?
Answer: Result: binds

B3: Drosophila dynamin Shibire (Shi), wild type (natural protein)
chain: MDSLITIVNKLQDAFTSLGVHMQLDLPQIAVVGGQSAGKSSVLENFVGKDFLPRGSGIVTRRPLILQLINGVTEYGEFLHIKGKKFSSFDEIRKEIEDETDRVTGSNKGISNIPINLRVYSPHVLNLTLIDLPGLTKVAIGDQPVDIEQQIKQMIFQFIRKETCLILAVTPANTDLANSDALKLAKEVDPQGVRTIGVITKLDLMDEGTDARDILENKLLPLRRGYIGVVNRSQKDIEGRKDIHQALAAERKFFLSHPSYRHMADRLGTPYLQRVLNQQLTNHIRDTLPGLRDKLQKQMLTLEKEVEEFKHFQPGDASIKTKAMLQMIQQLQSDFERTIEGSGSALVNTNELSGGAKINRIFHERLRFEIVKMACDEKELRREISFAIRNIHGIRVGLFTPDMAFEAIVKRQIALLKEPVIKCVDLVVQELSVVVRMCTAKMSRYPRLREETERIITTHVRQREHSCKEQILLLIDFELAYMNTNHEDFIGFANAQNKSENANKTGTRQLGNQVIRKGHMVIQNLGIMKGGSRPYWFVLTSESISWYKDEDEKEKKFMLPLDGLKLRDIEQGFMSMSRRVTFALFSPDGRNVYKDYKQLELSCETVEDVESWKASFLRAGVYPEKQETQENGDESASEESSSDPQLERQVETIRNLVDSYMKIVTKTTRDMVPKAIMMLIINNAKDFINGELLAHLYASGDQAQMMEESAESATRREEMLRMYRACKDALQIIGDVSMATVSSPLPPPVKNDWLPSGLDNPRLSPPSPGGVRGKPGPPAQSSLGGRNPPLPPSTGRPAPAIPNRPGGGAPPLPGGRPGGSLPPPMLPSRVSGAVGGAIVQQSGANRYVPESMRGQVNQAVGQAAINELSNAFSSRFK
Question: Does B3 bind [2]?
Answer: Result: binds
